According to US20250066503A1, “CELL INJURY INDUCING THERAPEUTIC DRUG FOR USE IN CANCER THERAPY” (CHUGAI SEIYAKU KABUSHIKI KAISHA, priority 2016, published 2025):

Target: T1, soluble human CD3 epsilon chain (human, UniProt P07766 23-126)
T1 construct: also called CD3ε
Experiment: SPR

T1 sequence (P07766 23-126 limits assumed): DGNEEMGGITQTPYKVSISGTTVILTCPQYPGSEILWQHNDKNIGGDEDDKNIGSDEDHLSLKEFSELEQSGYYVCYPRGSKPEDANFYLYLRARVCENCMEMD

| Binder | Kd |
| --- | --- |
| TR01H040-E22Hh/none-Hi-Kn010G3/L0200-k0 (antibody, V domains shown, one-arm) VH: QVQLVESGGGLVQPGRSLRLSCAASGFTFSNAWMHWVRQAPGKGLEWVAQIKDKSQNYATYYAESVKGRFTISRADSKNSIYLQMNSLKTEDTAVYYCRYVHYSASYGVDAWGQGTTVTVSS VL: DIVMTQSPLSLPVTPGEPASISCRPSQSPVHSNRNTYLHWYQQKPGQAPRLLIYKVSNRFSGVPDRFSGSGSGTDFTLKISRVEAEDVGVYYCGQGTQVPYTFGQGTKLEIK | 28.7 nM |
| TR01H040-E22Hh/none-Hi-Kn010G3/L0214-k0 (antibody, V domains shown, one-arm) VH: QVQLVESGGGLVQPGRSLRLSCAASGFTFSNAWMHWVRQAPGKGLEWVAQIKDKSQNYATYYAESVKGRFTISRADSKNSIYLQMNSLKTEDTAVYYCRYVHYSASYGVDAWGQGTTVTVSS VL: DIVMTQSPLSLPVTPGEPASISCRSSQPPVHSNRNTYLHWYQQKPGQAPRLLIYKVSNRFRGVPDRFSGSGSGTDFTLKISRVEAEDVGVYYCGQGTQVPYTFGQGTKLEIK | 20.2 nM |
| TR01H040-E22Hh/none-Hi-Kn010G3/L0202-k0 (antibody, V domains shown, one-arm) VH: QVQLVESGGGLVQPGRSLRLSCAASGFTFSNAWMHWVRQAPGKGLEWVAQIKDKSQNYATYYAESVKGRFTISRADSKNSIYLQMNSLKTEDTAVYYCRYVHYSASYGVDAWGQGTTVTVSS VL: DIVMTQSPLSLPVTPGEPASISCRSSQSPVHSNRWTYLHWYQQKPGQAPRLLIYKVSNRFSGVPDRFSGSGSGTDFTLKISRVEAEDVGVYYCGQGTQVPYTFGQGTKLEIK | 61.9 nM |
| TR01H040-E22Hh/none-Hi-Kn010G3/L0213-k0 (antibody, V domains shown, one-arm) VH: QVQLVESGGGLVQPGRSLRLSCAASGFTFSNAWMHWVRQAPGKGLEWVAQIKDKSQNYATYYAESVKGRFTISRADSKNSIYLQMNSLKTEDTAVYYCRYVHYSASYGVDAWGQGTTVTVSS VL: DIVMTQSPLSLPVTPGEPASISCRSSQSPVHSNRNTYIHWYQQKPGQAPRLLIYKVSNRFRGVPDRFSGSGSGTDFTLKISRVEAEDVGVYYCGQGTQVPYTFGQGTKLEIK | 20.1 nM |
| TR01H040-E22Hh/none-Hi-Kn010G3/L0215-k0 (antibody, V domains shown, one-arm) VH: QVQLVESGGGLVQPGRSLRLSCAASGFTFSNAWMHWVRQAPGKGLEWVAQIKDKSQNYATYYAESVKGRFTISRADSKNSIYLQMNSLKTEDTAVYYCRYVHYSASYGVDAWGQGTTVTVSS VL: DIVMTQSPLSLPVTPGEPASISCRSSQPPVHSNRNTYIHWYQQKPGQAPRLLIYKVSNRFSGVPDRFSGSGSGTDFTLKISRVEAEDVGVYYCGQGTQVPYTFGQGTKLEIK | 33.7 nM |
| TR01H040-E22Hh/none-Hi-Kn010G3/L0210-k0 (antibody, V domains shown, one-arm) VH: QVQLVESGGGLVQPGRSLRLSCAASGFTFSNAWMHWVRQAPGKGLEWVAQIKDKSQNYATYYAESVKGRFTISRADSKNSIYLQMNSLKTEDTAVYYCRYVHYSASYGVDAWGQGTTVTVSS VL: DIVMTQSPLSLPVTPGEPASISCRSSQSPVHSNRWTYLHWYQQKPGQAPRLLIYKVSNRFSGVPDRFSGSGSGTDFTLKISRVEAEDVGVYYCYQGTQVPYTFGQGTKLEIK | 5.06 nM |
| TR01H040-E22Hh/none-Hi-Kn010G3/L0207-k0 (antibody, V domains shown, one-arm) VH: QVQLVESGGGLVQPGRSLRLSCAASGFTFSNAWMHWVRQAPGKGLEWVAQIKDKSQNYATYYAESVKGRFTISRADSKNSIYLQMNSLKTEDTAVYYCRYVHYSASYGVDAWGQGTTVTVSS VL: DIVMTQSPLSLPVTPGEPASISCRSSQSPVHSNRNTYLHWYQQKPGQAPRLLIYKVSNRFRGVPDRFSGSGSGTDFTLKISRVEAEDVGVYYCYQGTQVPYTFGQGTKLEIK | 2.6 nM |
| TR01H040-E22Hh/none-Hi-Kn010G3/L0205-k0 (antibody, V domains shown, one-arm) VH: QVQLVESGGGLVQPGRSLRLSCAASGFTFSNAWMHWVRQAPGKGLEWVAQIKDKSQNYATYYAESVKGRFTISRADSKNSIYLQMNSLKTEDTAVYYCRYVHYSASYGVDAWGQGTTVTVSS VL: DIVMTQSPLSLPVTPGEPASISCRSSQSPVHSNRNTYLHWYQQKPGQAPRLLIYKVSNRFWGVPDRFSGSGSGTDFTLKISRVEAEDVGVYYCGQGTQVPYTFGQGTKLEIK | 34.2 nM |
| TR01H040-E22Hh/none-Hi-Kn010G3/L0216-k0 (antibody, V domains shown, one-arm) VH: QVQLVESGGGLVQPGRSLRLSCAASGFTFSNAWMHWVRQAPGKGLEWVAQIKDKSQNYATYYAESVKGRFTISRADSKNSIYLQMNSLKTEDTAVYYCRYVHYSASYGVDAWGQGTTVTVSS VL: DIVMTQSPLSLPVTPGEPASISCRSSQPLVHSNRNTYLHWYQQKPGQAPRLLIYKVSNRFRGVPDRFSGSGSGTDFTLKISRVEAEDVGVYYCGQGTQVPYTFGQGTKLEIK | 25.3 nM |

More lines, now with the values ahead:

| Kd | Binder |
| --- | --- |
| 5.06 nM | TR01H040-E22Hh/none-Hi-Kn010G3/L0224-k0 (antibody, V domains shown, one-arm) VH: QVQLVESGGGLVQPGRSLRLSCAASGFTFSNAWMHWVRQAPGKGLEWVAQIKDKSQNYATYYAESVKGRFTISRADSKNSIYLQMNSLKTEDTAVYYCRYVHYSASYGVDAWGQGTTVTVSS VL: DIVMTQSPLSLPVTPGEPASISCRSSQSPVHSNRNTYIHWYQQKPGQAPRLLIYKVSNRFPGVPDRFSGSGSGTDFTLKISRVEAEDVGVYYCYQGTQVPYTFGQGTKLEIK |
| 8.2 nM | TR01H040-E22Hh/none-Hi-Kn010G3/L0218-k0 (antibody, V domains shown, one-arm) VH: QVQLVESGGGLVQPGRSLRLSCAASGFTFSNAWMHWVRQAPGKGLEWVAQIKDKSQNYATYYAESVKGRFTISRADSKNSIYLQMNSLKTEDTAVYYCRYVHYSASYGVDAWGQGTTVTVSS VL: DIVMTQSPLSLPVTPGEPASISCRSSQSLVHSNRNTYLHWYQQKPGQAPRLLIYKVSNRFRGVPDRFSGSGSGTDFTLKISRVEAEDVGVYYCYQGTQVPYTFGQGTKLEIK |
| 20.7 nM | TR01H040-E22Hh/none-Hi-Kn010G3/L0217-k0 (antibody, V domains shown, one-arm) VH: QVQLVESGGGLVQPGRSLRLSCAASGFTFSNAWMHWVRQAPGKGLEWVAQIKDKSQNYATYYAESVKGRFTISRADSKNSIYLQMNSLKTEDTAVYYCRYVHYSASYGVDAWGQGTTVTVSS VL: DIVMTQSPLSLPVTPGEPASISCRPSQSLVHSNRNTYLHWYQQKPGQAPRLLIYKVSNRFRGVPDRFSGSGSGTDFTLKISRVEAEDVGVYYCGQGTQVPYTFGQGTKLEIK |
| 9.15 nM | TR01H040-E22Hh/none-Hi-Kn010G3/L0220-k0 (antibody, V domains shown, one-arm) VH: QVQLVESGGGLVQPGRSLRLSCAASGFTFSNAWMHWVRQAPGKGLEWVAQIKDKSQNYATYYAESVKGRFTISRADSKNSIYLQMNSLKTEDTAVYYCRYVHYSASYGVDAWGQGTTVTVSS VL: DIVMTQSPLSLPVTPGEPASISCRSSQPLVHSNRNTYLHWYQQKPGQAPRLLIYKVSNRFRGVPDRFSGSGSGTDFTLKISRVEAEDVGVYYCYQGTQVPYTFGQGTKLEIK |
| 39.4 nM | TR01H040-E22Hh/none-Hi-Kn010G3/L0219-k0 (antibody, V domains shown, one-arm) VH: QVQLVESGGGLVQPGRSLRLSCAASGFTFSNAWMHWVRQAPGKGLEWVAQIKDKSQNYATYYAESVKGRFTISRADSKNSIYLQMNSLKTEDTAVYYCRYVHYSASYGVDAWGQGTTVTVSS VL: DIVMTQSPLSLPVTPGEPASISCRSSQSLVHSNRNTYIHWYQQKPGQAPRLLIYKVSNRFRGVPDRFSGSGSGTDFTLKISRVEAEDVGVYYCGQGTQVPYTFGQGTKLEIK |
| 8.15 nM | TR01H040-E22Hh/none-Hi-Kn010G3/L0223-k0 (antibody, V domains shown, one-arm) VH: QVQLVESGGGLVQPGRSLRLSCAASGFTFSNAWMHWVRQAPGKGLEWVAQIKDKSQNYATYYAESVKGRFTISRADSKNSIYLQMNSLKTEDTAVYYCRYVHYSASYGVDAWGQGTTVTVSS VL: DIVMTQSPLSLPVTPGEPASISCRSSQSPVHSNRNTYIHWYQQKPGQAPRLLIYKVSNRLSGVPDRFSGSGSGTDFTLKISRVEAEDVGVYYCYQGTQVPYTFGQGTKLEIK |
